Measurements reported in PMC9191892.

Tests used:
[1] = target: ribosomes (80S monosomes and polysomes) (S. cerevisiae (endogenous in BY4741)); assay: co-sedimentation; formaldehyde-crosslinked cell extracts (unstressed or H2O2-treated) on 15-50% sucrose gradients, SW41 Ti 2.5 hr at 278,000 x g, 4°C; fractions western blotted
[2] = target: ribosomes (80S monosomes and polysomes) (S. cerevisiae (endogenous in BY4741)); assay: co-sedimentation; polysomal proteomics: formaldehyde-crosslinked extracts (unstressed, H2O2, 3-AT) on 15-50% sucrose gradients, fractions F1-F5 against totals by label-free MS; percent ribosome association estimated from the fraction sum to total ratio

| Binder | percent in ribosomal fractions [1] [%] | percent ribosome associated (H2O2-treated extract) [1] [%] | percent ribosome associated (H2O2-treated extract) [2] [%] |
| --- | --- | --- | --- |
| Aat2-TAP (cytosolic aspartate aminotransferase with a C-terminal TAP tag) (enzyme) MSATLFNNIELLPPDALFGIKQRYGQDQRATKVDLGIGAYRDDNGKPWVLPSVKAAEKLIHNDSSYNHEYLGITGLPSLTSNAAKIIFGTQSDAFQEDRVISVQSLSGTGALHISAKFFSKFFPDKLVYLSKPTWANHMAIFENQGLKTATYPYWANETKSLDLNGFLNAIQKAPEGSIFVLHSCAHNPTGLDPTSEQWVQIVDAIASKNHIALFDTAYQGFATGDLDKDAYAVRLGVEKLSTVSPVFVCQSFAKNAGMYGERVGCFHLALTKQAQNKTIKPAVTSQLAKIIRSEVSNPPAYGAKIVAKLLETPELTEQWHKDMVTMSSRITKMRHALRDHLVKLGTPGNWDHIVNQCGMFSFTGLTPQMVKRLEETHAVYLVASGRASIAGLNQGNVEYVAKAIDEVVRFYTIEAKL | 10 | 13 |  |
| Aat2 (cytosolic aspartate aminotransferase), untagged (enzyme) MSATLFNNIELLPPDALFGIKQRYGQDQRATKVDLGIGAYRDDNGKPWVLPSVKAAEKLIHNDSSYNHEYLGITGLPSLTSNAAKIIFGTQSDAFQEDRVISVQSLSGTGALHISAKFFSKFFPDKLVYLSKPTWANHMAIFENQGLKTATYPYWANETKSLDLNGFLNAIQKAPEGSIFVLHSCAHNPTGLDPTSEQWVQIVDAIASKNHIALFDTAYQGFATGDLDKDAYAVRLGVEKLSTVSPVFVCQSFAKNAGMYGERVGCFHLALTKQAQNKTIKPAVTSQLAKIIRSEVSNPPAYGAKIVAKLLETPELTEQWHKDMVTMSSRITKMRHALRDHLVKLGTPGNWDHIVNQCGMFSFTGLTPQMVKRLEETHAVYLVASGRASIAGLNQGNVEYVAKAIDEVVRFYTIEAKL |  |  | 9 |
